For seven molecules, rate of Ser-65 phosphorylation by PINK1 (time course, pSer-65 antibody Western blot), against WT full-length parkin, phosphorylation by PINK1 against the WT Ubl domain (data not shown) and Kd results are on record in paper PMC5925814, “Impact of altered phosphorylation on loss of function of juvenile Parkinsonism–associated genetic variants of the E3 ligase parkin” (The Journal of Biological Chemistry, 2018).

Residue numbers refer to the chain shown, from its start. Numbers in names are those of the source.

Assay [1] concerns the target T1, GST-tagged Pediculus humanus PINK1 (residues 128–575) (Pediculus humanus) (UniProt E0W1I1).
T1 sequence: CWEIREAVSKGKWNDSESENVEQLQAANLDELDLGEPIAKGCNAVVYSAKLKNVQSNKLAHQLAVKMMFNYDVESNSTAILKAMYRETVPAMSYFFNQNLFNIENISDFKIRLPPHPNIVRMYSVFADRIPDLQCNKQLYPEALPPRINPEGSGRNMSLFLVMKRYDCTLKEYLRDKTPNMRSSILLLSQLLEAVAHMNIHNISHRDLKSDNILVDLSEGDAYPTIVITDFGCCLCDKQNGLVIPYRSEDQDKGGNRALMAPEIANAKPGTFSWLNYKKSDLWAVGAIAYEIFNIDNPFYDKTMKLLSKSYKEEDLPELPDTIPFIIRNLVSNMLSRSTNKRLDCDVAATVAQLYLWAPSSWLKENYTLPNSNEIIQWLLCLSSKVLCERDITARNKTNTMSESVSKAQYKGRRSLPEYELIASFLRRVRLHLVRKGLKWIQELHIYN

Assay [2] has as its target T1, GST-tagged Pediculus humanus PINK1 (residues 128–575) (Pediculus humanus). This is another data set of the same source.
Assay [3] concerns the target T2, C-terminal portion of ataxin-3 (residues 194–361) containing three UIM regions (UniProt P54252 194-361).
T2 construct: Unlabelled in the NMR titrations; also called ataxin^194–361; tandem UIM region from ataxin-3; source: E. coli BL21(DE3), purified (Ni-NTA, TEV cleavage, second Ni-NTA)
Put plainly: NMR titration; unlabelled ataxin^194–361 titrated into 15N-labelled Ubl variants, 1H-15N HSQC chemical shift changes, global fit for a single Kd (apparent); 150 uM Ubl domain (75 uM pUbl^P37L); 25 mM HEPES, 100 mM NaCl, 0.5 mM TCEP, pH 7.0, 25 °C. Conditions: both partners purified.

T2 sequence (P54252 194-361): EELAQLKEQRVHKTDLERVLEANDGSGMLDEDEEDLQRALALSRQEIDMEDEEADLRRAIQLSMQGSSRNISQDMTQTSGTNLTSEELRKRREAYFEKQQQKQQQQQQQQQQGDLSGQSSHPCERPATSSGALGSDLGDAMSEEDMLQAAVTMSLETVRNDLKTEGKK

Turning to “full-length parkin (1–465) G12R (from UniProt O60260 1-465) (enzyme)”, the rate of Ser-65 phosphorylation by PINK1 (time course, pSer-65 antibody Western blot), against WT full-length parkin in assay [1] stood at 40%.

As to “parkin Ubl domain (1–76) I44A (from UniProt O60260 1-76) (domain or fragment)”, in assay [2], the phosphorylation by PINK1 against the WT Ubl domain (data not shown) stood at 20 fold.

B1: parkin Ubl domain (1–76), wild type (domain or fragment, human, UniProt O60260 1-76, looked up)
chain: MIVFVRFNSSHGFPVEVDSDTSIFQLKEVVAKRQGVPADQLRVIFAGKELRNDWTVQNCDLDQQSIVHIVQRPWRK
notes: parkin, human, ubiquitin-like (Ubl) domain, residues 1-76; 15N-labelled for the NMR titrations; also called WT Ubl domain; source: E. coli BL21(DE3), purified (Ni-NTA, Ulp1 cleavage, Superdex75)
B1: the Kd in assay [3] was determined as 187 ± 19 µM.

B2: parkin Ubl domain (1–76) S65E, phosphomimetic (domain or fragment, human, UniProt O60260 1-76, looked up)
chain: B1 chain with S65E
notes: parkin, human, ubiquitin-like (Ubl) domain, residues 1-76, S65E; 15N-labelled for the NMR titrations; also called Ubl^S65E; source: E. coli BL21(DE3), purified (Ni-NTA, Ulp1 cleavage, Superdex75)
With B2, the Kd in assay [3] amounted to 227 ± 26 µM.

B3: parkin Ser-65–phosphorylated Ubl domain (1–76) (domain or fragment, human, UniProt O60260 1-76, looked up)
chain: B1 chain
modifications: phosphoserine at 65
notes: parkin, human, ubiquitin-like (Ubl) domain, residues 1-76, phosphorylated at Ser-65; 15N-labelled for the NMR titrations; the preparative phosphorylation is not described; also called pUbl; pSer-65 Ubl; source: E. coli BL21(DE3), purified (Ni-NTA, Ulp1 cleavage, Superdex75); phosphorylated at Ser-65
Regarding B3, in assay [3], the Kd worked out at 652 ± 175 µM.

B4: parkin Ubl domain (1–76) P37L (domain or fragment, human, UniProt O60260 1-76, looked up)
chain: B1 chain with P37L
notes: parkin, human, ubiquitin-like (Ubl) domain, residues 1-76, ARJP substitution P37L; 15N-labelled for the NMR titrations; Disease-associated (ARJP) substitution; also called Ubl^P37L; source: E. coli BL21(DE3), purified (Ni-NTA, Ulp1 cleavage, Superdex75)
On to B4, for which the Kd in assay [3] stood at 61 ± 2 µM.

B5: parkin Ser-65–phosphorylated Ubl domain (1–76) P37L (domain or fragment, human, UniProt O60260 1-76, looked up)
chain: B1 chain with P37L
modifications: phosphoserine at 65
notes: parkin, human, ubiquitin-like (Ubl) domain, residues 1-76, ARJP substitution P37L, phosphorylated at Ser-65; 15N-labelled; used at 75 uM in the NMR titration; also called pUbl^P37L; pP37L; source: E. coli BL21(DE3), purified (Ni-NTA, Ulp1 cleavage, Superdex75); phosphorylated at Ser-65
As for B5, the Kd in assay [3] was 231 ± 72 µM.
